Source: publication PMC6303327 (2018)

Molecular target: Rfa3 DNA-binding domain-E (DBD-E), OB domain, residues 1-99 (S. cerevisiae, UniProt P26755 1-99, fluorescent label NT-495 (Monolith NT protein-labeling Kit Blue-Cys) on free cysteine residues)
Experiment: MST

Sequence of Rfa3 DNA-binding domain-E (DBD-E), OB domain, residues 1-99 (P26755 1-99): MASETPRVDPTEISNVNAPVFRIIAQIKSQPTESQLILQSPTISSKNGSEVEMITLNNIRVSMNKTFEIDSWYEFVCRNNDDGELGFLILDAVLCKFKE

EC50: 36 µM
B1: Rfa1 DBD-A (residues 178-294) phosphomimetic S178D (domain or fragment)
chain: DQKTRPIFAIEQLSPYQNVWTIKARVSYKGEIKTWHNQRGDGKLFNVNFLDTSGEIRATAFNDFATKFNEILQEGKVYYVSKAKLQPAKPQFTNLTHPYELNLDRDTVIEECFDESN
